Measured values taken from paper PMC5558127, “Plant Glyoxylate/Succinic Semialdehyde Reductases: Comparative Biochemical Properties, Function during Chilling Stress, and Subcellular Localization” (Frontiers in Plant Science, 2017).

Experiments:
Test in all cases: NADPH oxidation, absorbance microplate reader
[1] = target: T1, AtGLYR2 (AtGLYR2Δ58) (Arabidopsis thaliana, UniProt F4I907); type: biochemical; details: 50 μM NADPH fixed; pH optimum of the enzyme, MES/HEPES/TABS 50 mM each; room temperature
T1 construct: gene GLYR2
T1 sequence (F4I907 59-358): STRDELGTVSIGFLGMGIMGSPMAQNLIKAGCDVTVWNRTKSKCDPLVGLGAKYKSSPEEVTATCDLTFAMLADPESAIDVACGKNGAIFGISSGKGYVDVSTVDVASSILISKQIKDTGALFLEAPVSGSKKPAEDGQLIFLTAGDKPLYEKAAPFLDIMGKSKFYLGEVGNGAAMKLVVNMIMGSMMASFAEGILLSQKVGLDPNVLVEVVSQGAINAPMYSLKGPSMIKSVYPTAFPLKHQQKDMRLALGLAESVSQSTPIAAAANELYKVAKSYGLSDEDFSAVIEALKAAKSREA
Description: NADPH oxidation, absorbance microplate reader on AtGLYR2 (AtGLYR2Δ58)

[2] = target: T2, AtGLYR1 (Arabidopsis thaliana, UniProt Q9LSV0); type: biochemical; details: 50 μM NADPH fixed; pH optimum of the enzyme, MES/HEPES/TABS 50 mM each; room temperature
T2 construct: gene GLYR1
T2 sequence (Q9LSV0 1-289): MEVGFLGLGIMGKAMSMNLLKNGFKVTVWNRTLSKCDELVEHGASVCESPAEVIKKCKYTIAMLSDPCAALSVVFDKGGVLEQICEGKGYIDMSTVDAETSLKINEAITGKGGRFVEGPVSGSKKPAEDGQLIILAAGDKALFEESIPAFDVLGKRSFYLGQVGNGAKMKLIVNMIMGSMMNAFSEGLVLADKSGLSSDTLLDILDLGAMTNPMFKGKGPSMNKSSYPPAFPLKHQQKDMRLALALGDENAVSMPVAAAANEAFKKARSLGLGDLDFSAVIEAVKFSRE
Description: NADPH oxidation, absorbance microplate reader on AtGLYR1

[3] = target: T3, MdGLYR2 (MdGLYR2Δ54) (Malus domestica, UniProt A0A1C8M593); type: biochemical; details: 50 μM glyoxylate, 50 μM NADPH, NADP+ varied 0-0.5 mM
T3 construct: N-terminal targeting peptide removed (Δ54)

[4] = target: MdGLYR1 (Malus domestica, UniProt A0A1C8M582); type: biochemical; details: 50 μM glyoxylate, 50 μM NADPH, NADP+ varied 0-0.5 mM
[5] = substrate: NC(=O)C1=CN([C@@H]2O[C@H](COP(=O)(O)OP(=O)(O)OC[C@H]3O[C@@H](n4cnc5c(N)ncnc54)[C@H](OP(=O)(O)O)[C@@H]3O)[C@@H](O)[C@H]2O)C=CC1; type: biochemical, Malus domestica; details: 50 μM glyoxylate fixed; pH optimum of the enzyme, MES/HEPES/TABS 50 mM each; room temperature; varied: cofactor
Description: (§1) NADPH oxidation, absorbance microplate reader on MdGLYR2 (MdGLYR2Δ54)

[6] = substrate: O=CC(=O)O; type: biochemical, Malus domestica; details: 50 μM NADPH fixed; pH optimum of the enzyme, MES/HEPES/TABS 50 mM each; room temperature
Description: as §1

[7] = substrate: O=CCCC(=O)O; type: biochemical, Malus domestica; details: 50 μM NADPH fixed; pH optimum of the enzyme, MES/HEPES/TABS 50 mM each; room temperature
Description: as §1

[8] = substrate: NC(=O)C1=CN([C@@H]2O[C@H](COP(=O)(O)OP(=O)(O)OC[C@H]3O[C@@H](n4cnc5c(N)ncnc54)[C@H](OP(=O)(O)O)[C@@H]3O)[C@@H](O)[C@H]2O)C=CC1; type: biochemical, Malus domestica; details: 50 μM glyoxylate fixed; pH optimum of the enzyme, MES/HEPES/TABS 50 mM each; room temperature; varied: cofactor; remark: listed apart in the source
Description: (§2) NADPH oxidation, absorbance microplate reader on MdGLYR1

[9] = substrate: O=CC(=O)O; type: biochemical, Malus domestica; details: 50 μM NADPH fixed; pH optimum of the enzyme, MES/HEPES/TABS 50 mM each; room temperature; remark: listed apart in the source
Description: as §2

[10] = substrate: O=CCCC(=O)O; type: biochemical, Malus domestica; details: 50 μM NADPH fixed; pH optimum of the enzyme, MES/HEPES/TABS 50 mM each; room temperature; remark: listed apart in the source
Description: as §2

## O=CC(=O)O [glyoxylate]
[1]
  Km: 19.3 ± 4 µM
[2]
  Km: 23.2 ± 3.2 µM

## NC(=O)c1ccc[n+]([C@@H]2O[C@H](COP(=O)(O)OP(=O)(O)OC[C@H]3O[C@@H](n4cnc5c(N)ncnc54)[C@H](OP(=O)(O)O)[C@@H]3O)[C@@H](O)[C@H]2O)c1 [NADP+]
[3]
  % inhibition at NADP+/NADPH ratio of 5: ~ 50%
[4]
  % inhibition at NADP+/NADPH ratio of 5: ~ 50%

B1: MdGLYR2 (MdGLYR2Δ54) (Malus domestica) (protein)
chain: ASSKDELPARVGFLGLGIMGSPMAQNLIKSGCDVTVWNRTKSKCDPLISLGAKYKPSPEEVAASCDVTFAMLADPESAVAVALGKHGAANGMSSGKGYVDVSTVDVATSKLIGGNIKATGASFLEAPVSGSKKPAEDGQLIFLTAGDKSLYETVASLLDIMGKSRFYLGEVGNGAAMKLVVNMIMGSMMASFSEGLLLTEKIGLDPKVLVEVVSQGAISAPMYSMKGPSMIQSVYPTAFPLKHQQKDMRLALGLAESVSQSTPIAAAANELYKVAKSHGLSDEDFSAVIEALKPKLKH
notes: N-terminal targeting peptide removed (Δ54)
[5]
  Km: 1.8 ± 0.5 µM
  Vmax: 28.2 µmol/min/mg
  kcat: 15.7 ± 1.5 s⁻¹
  kcat/Km: 1.01e+07 ± 2.28e+06 M⁻¹ s⁻¹
[6]
  Km: 23.9 ± 1.9 µM
  Vmax: 34.3 µmol/min/mg
  kcat: 19.1 ± 2.1 s⁻¹
  kcat/Km: 796000 ± 33000 M⁻¹ s⁻¹
[7]
  Km: 6500 ± 327 µM
  Vmax: 18.6 µmol/min/mg
  kcat: 10.3 ± 1.9 s⁻¹
  kcat/Km: 1600 ± 200 M⁻¹ s⁻¹

B2: MdGLYR1 (Malus domestica) (protein)
chain: MEVGFLGLGIMGKAMSMNLLRHGFKVTVWNRTLSKSHELVEHGASVAETPAEVVRKCKYTIAMLSDPSAALSVVFGKDGILEQICAGKSYVDMSTVDADTSSKINEAIKERGGYFLEAPVSGSKKPAEDGQLVILAAGEKALYEEVIPAFNVMGKKSFYLGQVGNGAKMKLVVNMIMGSMMNAFSEGLVLAGRSGLEPSVLLDVLDLGGIANPMFRLKGPTMIQGSHSPAFPLKHQQKDMRLALALGDETATSMPVAAAANEAFKKARSMGLGDLDFSAVYETVKTLEEPSRNSQLR
[8]
  Km: 3.3 ± 0.5 µM
  Vmax: 39.4 µmol/min/mg
  kcat: 22.3 ± 3.4 s⁻¹
  kcat/Km: 6.8e+06 ± 278000 M⁻¹ s⁻¹
[9]
  Km: 14.1 ± 2.1 µM
  Vmax: 54.7 µmol/min/mg
  kcat: 30.9 ± 3.8 s⁻¹
  kcat/Km: 2.23e+06 ± 153000 M⁻¹ s⁻¹
[10]
  Km: 1133 ± 273 µM
  Vmax: 8.1 µmol/min/mg
  kcat: 4.6 ± 1.6 s⁻¹
  kcat/Km: 5100 ± 2300 M⁻¹ s⁻¹
